Assay results reported in PMC3696401.

Target: IRBIT (UniProt Q80SW1)
Experiment: reciprocal co-IP from co-transfected cells
Conditions: reference: wild-type IP3R1; sites S1589,S1755

Sequence of UniProt Q80SW1 (Q80SW1 whole entry, looked up): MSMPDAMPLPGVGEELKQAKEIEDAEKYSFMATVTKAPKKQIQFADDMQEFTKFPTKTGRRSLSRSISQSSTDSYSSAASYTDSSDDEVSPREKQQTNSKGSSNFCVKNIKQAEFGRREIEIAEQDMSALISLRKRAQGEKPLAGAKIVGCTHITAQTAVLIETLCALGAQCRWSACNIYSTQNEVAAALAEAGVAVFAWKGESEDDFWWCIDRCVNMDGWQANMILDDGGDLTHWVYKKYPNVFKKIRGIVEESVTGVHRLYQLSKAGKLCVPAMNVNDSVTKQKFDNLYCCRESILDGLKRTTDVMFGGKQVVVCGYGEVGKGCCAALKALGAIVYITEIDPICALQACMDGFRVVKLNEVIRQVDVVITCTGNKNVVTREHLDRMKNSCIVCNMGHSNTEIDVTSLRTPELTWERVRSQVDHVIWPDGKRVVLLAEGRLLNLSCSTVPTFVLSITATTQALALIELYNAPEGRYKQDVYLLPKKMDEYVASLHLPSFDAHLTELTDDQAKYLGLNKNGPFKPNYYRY

- binding against the reference: stronger
Substance: IP3R1 (from UniProt P29994-3) S1589A/S1755A (AA)
